From the DeepSol protein solubility set

Test: soluble on expression in E. coli; label from the status in PepcDB or PDB records

Row | Sequence | soluble on expression in E. coli
1 | MGSDKIHHHHHHMLLSSDASAFLSPRTVQASRMKPLRIGLFTDTFLPDQNGIVTSVGLLSDELRARGHHVDVVAPFFPEQQDTRPDVRRAPSVRYIFLPTYRLAWPTRKDFEQKYDLIHTHTPLTLGLAGARLARKWDVPHVATYHTHIEAYTHYVPGLTLLQKHTRVVTRLMGLYYRRADAVITPTAAMLDVTREMGVRNPVVIPTSVKPEVLQAAPPVENPWPAGTRRLLTVGRLAREKRFDLVLDTLANLPDAHLVVLGEGPEREHLIRHAERLGVAARVSFLGVKPWTEIGAYYRLAELFLFASDTETQGLVLQEAQLMGVPVIAVGARGTLSGVAQGRSGYLVAPGDVAALTRHAQAILADGQLWRRLSEGARAFGAAWTPGGVAERVLDVYASVLGVPREIPFPEAASPRNTLAYDR | not soluble
2 | MSVLDLVALSEGMTAGEAIAHSVRAAQIAEEHNYARFWVAEHHNSEGLASSATTLLMGHIAGHTSRIRVGSGGIMMPNHSALHVAEELGTLEAIYPGRIEAGLGRAPGTDPMTARELGRASSLVDDVLSTIVSLQNYLDTPEERPNIIAHPGINSRVPLFMLGSSLNGAAMAAKLDLPFAFASHFAPFQMGPAIASYRELAANPYVMAAANVLVCDTEEEAEFQISTLHQMFAGIVTNSRGKLAPPVRNLKDKLDPMIWKHIEDSLEMTFIGTAESVVLQLQEFADRYKLDEIITVTYSYDPEVRFRSIAALGT | not soluble
3 | MAEDFSVVVLASDLGIDARPFLTRSDDVDEQENWHDCPQYLGDEDFSDLDLLQFFTLQGLDRSGNRIFRIVGKYFPARVVSAERLKKYISQKISNQCPEGPLCLVYMHSTVQKDDNSPGITILRWIYEDLPSDIKDRLQLVYFIHPGLRSRLVIATLGRLLLSGGLYWKIKYVSRLQYLWEDIKKGEVEIPDFVKNHDNVLEHRPLTDYGIEPDPFQLSEVQSSSFSLNRYENRWVS | soluble
4 | MSEVPHFVLYEHAAGYALMKIKEFDDAGLILQEVDAAHADGYKFSQIVELASFDPFKNTEAALENCNSISEGLAHPDLTNFLQKSLPKKKKHVVLGINDSKLAGSLTEAFPDLKLVFGGVITEILRGTRVHFERLAKNLPHHSLSKAQLSLGHSYSRSKVKFDVHRVDNMVIQSIALLDQLDKDINLFGMRIREWYSYHYPELFRLAPDQYKYSRLAVAILDRNKMAENENLENEILEILDNDSEKTAQIIEAARTSMGMDISDLDLENIKRFAARVSSLMEYRQQLHEYIKDRMDHCAPSLSALIGEQVGARLISHAGSLTNLAKYPASTVQILGAEKALFRALKTRSNTPKYGLLFHSSFIGKAGTKNKGRVSRYLANKCSIAARVDCFSETPVSTYGEFLRQQVEDRLEYFTSGTVPKKNIDVMKEAEEAAVEVKEKVIKKKKKAAKKAKRLAEESVTATAEAEVDEDAPKPKKKKKSKAGDE | not soluble
5 | MIDQFMSMSELIDHTEEHKDWQILYNERVAKSLITAVHGGAIERGTSEIAQLISEIGGYSFYTFKGIRKNKNHELHVTSKHFDEPILNELVPTHEVVVSLHGCMGNDVAVYIGGKDLELSYEITQQLQKIGIVVKPAPAHIAGMQTENFVNKGKRDAGVQLELTVALRKQCFKNNKYNLHDRENRENWSQLMFSFSTAIANALKILNDLEHHHHHH | not soluble
6 | MDSRIAIYVLVSASLLYLVNCHKLVHYFNLKINGSDITNTADILLDNYPIMTFDGKDIYPSIAFMVGNKLFLDLYKNIFVEFFRLFRVSVSSQYEELEYYYSCDYTNNRPTIKQHYFYNGEEYTEIDRSKKATNKNSWLITSGFRLQKWFDSEDCIIYLRSLVRRMEDSNKNSKKT | not soluble
7 | MSQLVYFSSSSENTQRFIERLGLPAVRIPLNERERIQVDEPYILIVPSYGGGGTAGAVPRQVIRFLNDEHNRALLRGVIASGNRNFGEAYGRAGDVIARKCGVPWLYRFELMGTQSDIENVRKGVTEFWQRQPQNA | soluble
8 | MEVLVIAPRICVNVIRTLPIGLPVGVEKRLRAFDPDVIHLASPYAFAARAAFIAQKMAVPCVAVYQTDVAAYQQHYHLTWLKNLEHHHHHH | not soluble
9 | MSLKITAADVVVTSPGRNFVTLRITTEDGLTGLGDATLNGRELAVEAYLREHVAPLLLGRDAHAVEDTWQYLYRGAYWRRGPVTMAAVAAVDMALWDIKGKAAGMPVYQLLGGACRTGALAYGHASGRDIPELLDSVREHLADGFRAVRIQSGIPGLDSVYGVAASAAGDGDRYDYEPARRTGAAHPRPTEETWDTRAYLRHMPTVFEAVRHTFGPELPLLHDGHHRMTPIQAARLGKDLEPYDLFWLEDATPGEDQGALRLIREHTTTPLAIGEVFNSVHDYTTLLQERLIDYVRSAVTHTGGITAVRKLLDMAAVYGIKSGMHGPTDISPVGMAAALHLDLAVHNFGIQEYMRHAPDTLEVFRTSYRFEDGLLHPGEAPGLGVELDDGAAARFPYEPAYLPVNRLSDGTVHDWEGHHHHHH | not soluble
10 | MAKVKRRDLLKAGAALAAAGTLGKGFAQEFYASPPTLLPRSRAPRVVVVGGGWGGTTVARKVKQQNPGVEVVLVEQKPIFMSCPMSNLFLAGVKPLEWLVFDYTNVVKDGVIFVQEKVLEINRDRRLVRTTGGYLAYDFLVLAPGIDYMYEAIPGYEEAKHFLPVGFKPFEHIALRRMLDRFDETGGELVMYIPPPPYRCPPGPYERAAMLAWRLKTKGVKGKVIVLDANPQPLAKAPGFLAAYNELYKDYLEYQPNMRITGLDYEKKVVRTELGDYPFTLANVIPPMKAAEIVRQAGLGERWANVRIPYFLSEADDRVYLVGDITGNTPYPKSGMIAYVSGTIVARHLTERLKGKPLAEIPPELPTNICYSFVDSEEAIWVSANYSWDEAEKRIKAQSQVDNQRSKANGEAAIGWALGLWNDMFGPA | soluble
11 | MGSDKIHHHHHHMSFMDQIPGGGNYPKLPVECLPNFPIQPSLTFRGRNDSHKLKNFISEIMLNMSMISWPNDASRIVYCRRHLLNPAAQWANDFVQEQGILEITFDTFIQGLYQHFYKPPDINKIFNAITQLSEAKLGIERLNQRFRKIWDRMPPDFMTEKAAIMTYTRLLTKETYNIVRMHKPETLKDAMEEAYQTTALTERFFPGFELDADGDTIIGATTHLQEEYDSDYDSEDNLTQNGYVHTVRTRRSYNKPMSNHRNRRNNNPSREECIKNRLCFYCKKEGHRLNECRARKASSNRS | not soluble
12 | MLTYGAPFNFPRWIDEHAHLLKPPVGNRQVWQDSDFIVTVVGGPNHRTDYHDDPLEEFFYQLRGNAYLNLWVDGRRERADLKEGDIFLLPPHVRHSPQRPEAGSACLVIERQRPAGMLDGFEWYCDACGHLVHRVEVQLKSIVTDLPPLFESFYASEDKRRCPHCGQVHPGRAA | soluble
13 | MGSDKIHHHHHHMIVINMFSSANKVAGQGVGAVYTELMGLLKHDFSNEFEVNVNRYTRSDISHYHTIDPKFYLSTFSKKRGRKIGFVHFVPSTLDASLKLPRVARWTLDKYTLAFYKRMDQLVVVNPNFIPKLEAYGISRDKVTYIPNFVSQRTFHPVSTEKRQALRHANGFKPDDFVIFGAGQVQDRKGVSDFIKLAKQNPEFRFVWAGGFSFGRITEGYDHLKKAVAEAPANLDFTGIMPRETMIDYYNMADVFLLPSYEELFPMSVLEAFATGTPVMVRDLELYHQIITPYAITAVDVDDMQSRLRALADDHDLLATYATKSRQAAEVYDESRLEKVWHDFYLHQAALGKH | not soluble
14 | MMKGSKSYTEYSSSFSTDEFGYDQNRSNSYNFNGPCINTDPEMKRKKRVASYNLFATEEKLKSTLKNSFKWIKNKFSGDDNSIRYNV | not soluble
15 | MAAEIKQGDHKFYVGDDENNPKAVITFKEVDNNEIDIDHTGVSDELGGQGLGKKLVNRVVEHARENNLKIIASCPFAKNVLEKDDHAQDVYLGLEHHHHHH | soluble
16 | MRKTLIALMFAAALPTVAMAMPDGGPRHDGPHHRGDAPFHQLDLSRDQRQQIGKLMGEQMQQRRDITERYLSKLPATDQKAMKDELQANRDKTDSAVRKLLTADQQKKFDELQKERAAKKAEWQEFQAWKAEKGAKAQLEHHHHHH | soluble
17 | MTRTSKWTVHEAKSNPKYFTHNGNFGESPNHVKRGGYGKGNWGKPGDEINDLIDSGEIKTVFNKTRRGSNSQNNERRLSDLQQYHI | soluble
18 | MIFKSNFTTRAGLAALALSFAAAGAPSVASAQQAGGKPPQGWFKVCTKQEDNDVCIVQNLLTANNGQLVTAVGLITVSGKVNRKVMQVSVPSARMIPPGVQMQIDGGKGVKLDYAICMPDKCVAEAPLSDALIAQLKKGNEVVFTSVNFQRAPNPIKMSLEGFTGVFDGEPIEQSQLEERQRLLQEEMQKKAEDARKKLEEAQKAAKQQ | not soluble
19 | MGSDKIHHHHHHMLKHADIWAAIDALARDHGLTASALARKAGLDPTTFNKSKRVTREGKPRWPSTESVAKVLEATGATMTAFVGYIEDTAQARQTANTIPLIGFAQAGDCGYFDDAGYPVGGSWDEIPFPEIGDPHAYALEVSGDSMEPLYRDGDVVIVSPAAGVRRGDRVVVRTTEGEVMVKQLVRQTAKRIELASINPAHPGRSLATEEVAWIARILWSSQ | not soluble
20 | MAMTKLDATLAMLKELTDARGIAGNEREPREVMKKYIEPFADELSTDNLGSLVAKKVGEENGPKIMVAGHLDEVGFMITQIDDKGFLRFQTVGGWWSQVMLAQRVTIVTRKGDVTGVIGSKPPHILPPEARKKPVEIKDMFIDIGASSQEEAMEWGVRPGDQVVPYFEFQVMKNEKMLLAKAWDNRIGCAIAIDVLKQLKDEKHPNVVYGVGTVQEEVGLRGAKTSANYIKPDIAFAVDVGIAGDTPGVTSKEAQSKMGDGPQIILYDASVIGHTGLRDFVVDVADELQIPYQYDSVAGGGTDAGAIHIAVNGIPSMAITIATRYIHSHAAMLHRDDYENAVKLIVEVIKRLDKEAVHNITFN | not soluble
21 | MSLDLFIPEVAYINPQALKHPLGNEAYQYLKSMGVPIIESNRVSIDTDSPVKNYVKAKKTILLTVSKQKKLQQCKPSADYQFALSSSCPGHCEYCYLQTTQGEKPYMRLFVNIEEILENIQEYMDGNKPNITTFEAASITDPVGLDHITRALEKCITYFGESSHGRLRLVTKFDHVDPYLKLPHNGHTTFRFTINTQWVIKNFEHHTSSAHERVEGAKKIAHANYPLGFIIAPIMLYDHWEKDYKDLLEELSLALKDYEKPIGFEMIQHRFTSKAKDLILQRFPNTKLNLDEESRKLKWGPYGQFKYVYPTEKSDYMRDYLTGLIKDLFPNGRIEYFTEGHHHHHH | not soluble
22 | MSSGNILWGSQNPIVFKNSFGVSNADTGSQDDLSQQNPFAEGYGVLLILLMVIQAIANNKFIEVQKNAERARNTQEKSNEMDEVIAKAAKGDAKTKEEVPEDVIKYMRDNGILIDGMTIDDYMAKYGDHGKLDKGGLQAIKAALDNDANRNTDLMSQGQITIQKMSQELNAVLTQLTGLISKWGEISSMIAQKTYS | not soluble
23 | MKQSKIIVAGIGPGSEQDITPAVLAAVREADVVVGYKYYFRFIRDFVRPDAECIDTGMKRERARAEQAFEYAEQGKTVCVISSGDAGIYGMTPLIYEMKRERQSNVEIIALPGI | not soluble
